Measurements as given in PMC4066767, “Distinct nucleic acid interaction properties of HIV-1 nucleocapsid protein precursor NCp15 explain reduced viral infectivity”.

Columns and labels:
NCp15 (p9 + p6) (HIV-1) = NCp15 (p9 + p6) (HIV-1) (UniProt P12493); experiment: fluorescence anisotropy
[1] = target: NCp7 (mature nucleocapsid) (HIV-1) (UniProt P12493); experiment: fluorescence anisotropy
NCp9 (p7 + SP2) (HIV-1) = NCp9 (p7 + SP2) (HIV-1) (UniProt P12493); experiment: fluorescence anisotropy
[2] = target: NCp7 (mature nucleocapsid) (HIV-1, UniProt P12493 378-432); experiment: fluorescence anisotropy salt titration; Kd extrapolated to 1 M NaCl; Zeff 3.0 ± 0.3; conditions: protein: recombinant; tags: none (Trx tag removed by TEV); label: 5' FAM; single strand
NCp15 (p9 + p6) = NCp15 (p9 + p6) (HIV-1, UniProt P12493 378-500); experiment: fluorescence anisotropy salt titration; Kd extrapolated to 1 M NaCl; Zeff 3.8 ± 0.7; conditions: protein: recombinant; tags: none (Trx tag removed by TEV); label: 5' FAM; single strand
NCp9 (p7 + SP2) = NCp9 (p7 + SP2) (HIV-1, UniProt P12493 378-448); experiment: fluorescence anisotropy salt titration; Kd extrapolated to 1 M NaCl; Zeff 4.3 ± 0.7; conditions: protein: recombinant; tags: none (Trx tag removed by TEV); label: 5' FAM; single strand

| Molecule | Kd (NCp15 (p9 + p6) (HIV-1)) [µM] | Kd [1] [µM] | Kd (NCp9 (p7 + SP2) (HIV-1)) [µM] | Kd [2] [µM] | Kd (NCp15 (p9 + p6)) [µM] | Kd (NCp9 (p7 + SP2)) [µM] |
| --- | --- | --- | --- | --- | --- | --- |
| shortPBS RNA (105 nt) | 0.278 | 0.231 | 0.24 | – | – | – |
| ACTGGACCAAATTCTAATGTGTGTGTACGAAGCATAGCGG (ssDNA) [40-nt ssDNA] | – | – | – | 23 | 78 | 92 |
